Article PMC3781594 (Circulation, 2013)
Where two headings read alike, the source gives them in different places.

T1: recombinant CD74 ectodomain (sCD74 = CD74 73-232) (UniProt P04233-2 73-232)
T1 sequence (looked up): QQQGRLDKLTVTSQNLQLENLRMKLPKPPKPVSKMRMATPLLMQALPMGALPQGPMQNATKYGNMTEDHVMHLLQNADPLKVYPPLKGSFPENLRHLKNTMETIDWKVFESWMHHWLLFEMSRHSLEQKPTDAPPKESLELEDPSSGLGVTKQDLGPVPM

B1: biotinylated MIF (ligand, UniProt P14174 1-115, looked up)
chain: MPMFIVNTNVPRASVPDGFLSELTQQLAQATGKPPQYIAVHVVPDQLMAFGGSSEPCALCSLHSIGKIGGAQNRSYSKLLCGLLAERLRISPDRVYINYYDMNAANVGWNNSTFA
modifications: biotin (site not stated)
B2: human macrophage migration inhibitory factor (MIF) (ligand, UniProt P14174 1-115, looked up)
chain: B1 chain

How the values were obtained:
[1] = biological target: T1, recombinant CD74 ectodomain (sCD74 = …); assay: ELISA
[2] = biological target: T1, recombinant CD74 ectodomain (sCD74 = …); assay: SPR
[3] = biological target: T1, recombinant CD74 ectodomain (sCD74 = …); assay: SPR; remark: listed apart in the source

Row | Binder | fold increase of MIF bound with 500 nM MIF20 against MIF without agonist [1] [fold] | Kd [2] [nM] | Kd [3] [nM]
1 | B1 | ~2.5 |  | 
2 | B2 |  | 2.25 | 6.06
